Ends that are not written are not given here.
Tests used:
Type in all cases: binding
[1] = biological target: T1, A1PI (Homo sapiens, UniProt P01009); assay: Purification of A1PI from Effluent II+III on peptide column, A1PI mass balance; conditions: 1 ml Eff. II+III, 4° C.; for Percent Eluted by Fraction, 1M NaCl / Percent Eluted by Fraction, 2% Acetic Acid / Percent Eluted by Fraction, Flowthrough: A1PI
T1 construct: Human plasma is currently the only approved source of therapeutic AlPI
Summary of the method: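 First, 1 ml of the ethanolic Cohn intermediate (20% ethanol, ~1 mg/ml A1PI) is injected and held for a 10 min residence time. Columns are then eluted stepwise at a constant 865 μl/min with 1M NaCl, 3M NaCl and finally 2% acetic acid, all at 4° C.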

[2] = biological target: T1, A1PI; assay: A1PI purification from 5 mg hSA + 1 mg A1PI on peptide column, A1PI mass balance; conditions: A1PI, 5 mg hSA + 1 mg A1PI; for Mass Protein per Eluate Fraction, 1M NaCl / Mass Protein per Eluate Fraction, 2% Acetic Acid / Mass Protein per Eluate Fraction, Flow: * Below detection limit; for Percent Eluted by Fraction, 1M NaCl / Percent Eluted by Fraction, 2% Acetic Acid / Percent Eluted by Fraction, 3M NaCl / Percent Eluted by Fraction, Flow: relative to total loaded
Summary of the method: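 Mass balance by immunonephelometry of fractions from step elutions (1M NaCl, 3M NaCl, 2% acetic acid, neutralised with Tris) at 865 μl/min. Sample was a mixture of 1 mg A1PI and 5 mg hSA held 10 min on peptide-derivatised Toyopearl columns (0.1 mmole/g) at 4 °C or 20 °C.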

[3] = biological target: T1, A1PI; assay: A1PI yield from dialyzed (aqueous) Effluent II+III; conditions: 4° C.
Summary of the method: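 Effluent II+III was dialyzed at 4° C against equilibration buffer (15,000 MWCO) to remove ethanol. It was then applied under the same binding conditions as neat feed, and A1PI was tracked by nephelometry in the 1M NaCl and acid eluates.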

[4] = Table 11, * Below detection limit
[5] = Table 13, * Below detection limit
[6] = 1 ml dialyzed Eff. II+III (ethanol removed)
[7] = A1PI, 1 ml dialyzed Eff. II+III

T1 sequence (P01009 25-418): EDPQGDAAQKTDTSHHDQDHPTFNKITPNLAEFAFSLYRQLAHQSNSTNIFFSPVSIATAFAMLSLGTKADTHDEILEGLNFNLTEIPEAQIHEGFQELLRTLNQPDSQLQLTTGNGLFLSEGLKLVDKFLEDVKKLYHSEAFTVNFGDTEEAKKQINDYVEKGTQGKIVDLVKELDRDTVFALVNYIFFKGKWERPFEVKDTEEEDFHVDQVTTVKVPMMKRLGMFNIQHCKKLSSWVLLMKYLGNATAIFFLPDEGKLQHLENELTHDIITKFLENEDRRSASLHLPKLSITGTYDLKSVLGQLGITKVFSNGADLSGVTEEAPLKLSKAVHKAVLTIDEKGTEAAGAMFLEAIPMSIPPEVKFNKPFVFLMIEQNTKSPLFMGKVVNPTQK

Substance: VIFLVR
- Mass A1PI per Eluate Fraction, 2% Acetic Acid [1, 4]: 0.57 mg
- Mass A1PI per Eluate Fraction, Flowthrough [1, 4]: 0.13 mg
- Percent Eluted by Fraction, 1M NaCl ([1]; Table 11): 0%
- Percent Eluted by Fraction, 2% Acetic Acid ([1]; Table 11): 82%
- Percent Eluted by Fraction, Flowthrough ([1]; Table 11): 18%
- Mass A1PI per Eluate Fraction, 1M NaCl [1, 5]: 0.07 mg
- Mass A1PI per Eluate Fraction, 2% Acetic Acid [1, 5]: 0.91 mg
- Mass A1PI per Eluate Fraction, Flowthrough [1, 5]: 0.32 mg
- Percent Eluted by Fraction, 1M NaCl ([1]; Table 13): 5%
- Percent Eluted by Fraction, 2% Acetic Acid ([1]; Table 13): 70%
- Percent Eluted by Fraction, Flowthrough ([1]; Table 13): 25%
- Mass Protein per Eluate Fraction, 1M NaCl ([2]; Table 10, 4° C.): 0.05 mg
- Mass Protein per Eluate Fraction, 2% Acetic Acid ([2]; Table 10, 4° C.): 0.61 mg
- Mass Protein per Eluate Fraction, Flow ([2]; Table 10, 4° C.): 0.13 mg
- Percent Eluted by Fraction, 1M NaCl ([2]; Table 10, 4° C.): 7%
- Percent Eluted by Fraction, 2% Acetic Acid ([2]; Table 10, 4° C.): 77%
- Percent Eluted by Fraction, 3M NaCl ([2]; Table 10, 4° C.): 0%
- Percent Eluted by Fraction, Flow ([2]; Table 10, 4° C.): 16%
- Mass Protein per Eluate Fraction, 1M NaCl ([2]; Table 10, 20° C.): 0.02 mg
- Mass Protein per Eluate Fraction, 2% Acetic Acid ([2]; Table 10, 20° C.): 0.60 mg
- Mass Protein per Eluate Fraction, Flow ([2]; Table 10, 20° C.): 0.17 mg
- Percent Eluted by Fraction, 1M NaCl ([2]; Table 10, 20° C.): 2%
- Percent Eluted by Fraction, 2% Acetic Acid ([2]; Table 10, 20° C.): 76%
- Percent Eluted by Fraction, 3M NaCl ([2]; Table 10, 20° C.): 0%
- Percent Eluted by Fraction, Flow ([2]; Table 10, 20° C.): 22%
- Mass Protein per Eluate Fraction, 1M NaCl ([2]; Table 19, 4° C.): 0.05 mg
- Mass Protein per Eluate Fraction, 2% Acetic Acid ([2]; Table 19, 4° C.): 0.61 mg
- Mass Protein per Eluate Fraction, Flow ([2]; Table 19, 4° C.): 0.13 mg
- Percent Eluted by Fraction, 2% Acetic Acid ([2]; Table 19, 4° C.): 77%
- Percent Eluted by Fraction, 3M NaCl ([2]; Table 19, 4° C.): 0%
- Percent Eluted by Fraction, Flow ([2]; Table 19, 4° C.): 16%
- Mass Protein per Eluate Fraction, 1M NaCl ([2]; Table 19, 20° C.): 0.02 mg
- Mass Protein per Eluate Fraction, 2% Acetic Acid ([2]; Table 19, 20° C.): 0.60 mg
- Mass Protein per Eluate Fraction, Flow ([2]; Table 19, 20° C.): 0.17 mg
- Percent Eluted by Fraction, 2% Acetic Acid ([2]; Table 19, 20° C.): 76%
- Percent Eluted by Fraction, 3M NaCl ([2]; Table 19, 20° C.): 0%
- Percent Eluted by Fraction, Flow ([2]; Table 19, 20° C.): 22%
- Mass A1PI per Eluate Fraction, 1M NaCl [3, 6]: 0.09 mg
- Mass A1PI per Eluate Fraction, 2% Acetic Acid [3, 6]: 0.37 mg
- Mass A1PI per Eluate Fraction, Flowthrough [3, 6]: 0.25 mg
- Percent Eluted by Fraction, 1M NaCl [3, 7]: 13%
- Percent Eluted by Fraction, 2% Acetic Acid [3, 7]: 51%
- Percent Eluted by Fraction, Flowthrough [3, 7]: 36%

Reference: patent publication US5985836A, “Alpha-1 proteinase inhibitor binding peptides” (Bayer Corporation, priority 1998, dated 1999)
